Sequences and labels used below:
B1: SLP_VHH5 (VHH)
VHH: QVKLEESGGGLVQAGGSLRLSCAASRLTFSTYHMGWFRQAPGKEREFVAALSWSGGTTYYADSVKGRFGISRDNAKNTVYLQMNSLKPEDTAVYYCASGGVLATMNSDEYDYWGQGTQVTVSS
notes: From an immune llama phage display library panned on QCD-32g58 SLP; source: monomeric SEC fractions for SPR; not shown: His6, C-terminal, kept
B2: SLP_VHH23 (VHH)
VHH: QVQLVESGGGLVQAGGSLRLSCAASGRTFSSYAVGWFRQAPGKEREFVAAISWSGGYTDYADSVKGRFTISRDNAKNTVYLQMNNLKPEDTAVYYCAADWSHPENKAELLRLRLWVLSAESSDDWGQGTQVTVSS
notes: as for B1
B3: SLP_VHH46 (VHH)
VHH: QVKLEESGGGLVQAGGSLRLSCADSERTFRIYTMAWFRQAPGKERDFVAAISWSGGSTYYADSVKGRFTISRDNAKNTVYLPMNSLKPDDTAVYYCASGGVLSTGSQSDSEYDFWGQGTQVTVSS
notes: as for B1
B4: SLP_VHH12 (VHH)
VHH: QVQLVESGGGLVQAGDSLRLSCAASGGTFSSYAVGWFRQAPGKERQFVAAISWSGRSTEYADSVKGRFTISRDNAKNTVYLQMNSLQPDDTGVYYCAADWSHPENKAELLRLRLWVLSAESSDYWGQGTQVTVSS
notes: as for B1
B5: SLP_VHH22 displayed on phage (VHH)
VHH: QVQLVESGGGLVQPGGSLRLSCAASGFTLDSYAIGWFRQAPGKEHEGISCISSNGGSTYYTDSVKGRFTISRDNAKNTVYLQMNSLESEDSAVYYCATVRRCSSLDMALGALATRTKGYDYWGQGTQVTVSS
notes: as the VHH of m4
B6: SLP_VHH23 displayed on phage (VHH)
VHH: B2 VHH
notes: as the VHH of m5
B7: SLP_VHH12 displayed on phage (VHH)
VHH: B4 VHH
notes: as the VHH of m3

Usually Kd stands for the equilibrium constant for the complex coming apart. Low values mean a tighter complex, high ones a looser complex. Broadly, the koff is the first-order rate constant of dissociation. As a reminder, the kon is the rate constant with which the complex forms. A low value points to slower complex formation.

The first assay has as its target T1, QCD-32g58 LMW SLP (low-molecular-weight subunit of the QCD-32g58 surface layer protein) (Clostridioides difficile QCD-32g58 …, UniProt A0A9R0BMB3, strain).
T1 construct: low-molecular-weight (LMW) subunit of the surface layer protein, cut from the precursor SlpA by Cwp84, C. difficile strain QCD-32g58 (ribotype 027); predicted mass 33.9 kDa; also called QCD-32g58 SLP LMW subunit; LMW subunit; source: purified from C. difficile QCD-32g58 (low-pH glycine extraction, minor SEC peak at about 15 ml); in the Western blot the LMW band of the extracted SLPs
The experiment in a line: SPR; Biacore 3000; SEC-purified QCD-32g58 LMW SLP subunit amine-coupled to a CM5 chip; single-concentration screen, 200 nM VHH; 25 °C, 10 mM HEPES pH 7.4, 150 mM NaCl, 3 mM EDTA, 0.005 % P20. The settings on record: both partners purified. Background: SPR reads the build-up and loss of mass on a sensor chip optically.
B1: the Kd was 3 nM, the off-rate (koff) came to 0.00041 s⁻¹ and the kon amounted to 140000 M⁻¹ s⁻¹.
Molecule B2 displayed an equilibrium dissociation constant (Kd) of 3 nM, a koff of 0.00032 s⁻¹ and an association rate constant (kon) of 110000 M⁻¹ s⁻¹.
In turn, B3 displayed a Kd of 2 nM, a koff of 0.00032 s⁻¹ and a kon of 150000 M⁻¹ s⁻¹.
As to B4, the Kd turned out to be 1 nM, the koff was found to be 0.00012 s⁻¹ and the kon came out at 140000 M⁻¹ s⁻¹.

In another assay the target is T2, SLP on cells of C. difficile strain 196 (ribotype 027) (Clostridioides difficile 196 (ribotype …, UniProt A0A9R0BMB3, strain)).
T2 construct: LMW subunit of the surface layer protein (from the precursor SlpA), C. difficile strain 196, ribotype 027; HMW subunit of the surface layer protein (from the precursor SlpA), C. difficile strain 196, ribotype 027; Whole cells were the antigen; source: endogenous, on formalin-fixed C. difficile 196 cells
In words: ELISA; whole cell ELISA: formalin-fixed C. difficile cells coated on MaxiSorp plates, His6-tagged VHH at 10 μg/ml in PBS-T, 37 °C, 1 h, detected with anti-His6-HRP. The settings on record: one partner purified. In general terms: ELISA stands for enzyme-linked immunosorbent assay.
For B1, the binding result is “binds”.
With B2, the binding result is on record as “binds”.
Turning to B3, the binding result is recorded as “binds”.
Take B4: the binding result was “binds”.

Another assay addresses T3, SLP on cells of C. difficile strain BI-1 (ribotype 027) (Clostridioides difficile BI-1 (ribotype …, UniProt A0A9R0BMB3, strain)).
T3 construct: LMW subunit of the surface layer protein (from the precursor SlpA), C. difficile strain BI-1, ribotype 027; HMW subunit of the surface layer protein (from the precursor SlpA), C. difficile strain BI-1, ribotype 027; Whole cells were the antigen; source: endogenous, on formalin-fixed C. difficile BI-1 cells
Described as above. The settings on record: one partner purified.
Consider B1, for which the binding result is listed as “binds”.
On to B2, for which the binding result is listed as “binds”.
Take B3: the binding result is recorded as “binds”.
B4: the binding result is listed as “binds”.

For a further assay, the target named is T4, SLP on cells of C. difficile strain BI-7 (ribotype 027) (Clostridioides difficile BI-7 (ribotype …, UniProt A0A9R0BMB3, strain)).
T4 construct: LMW subunit of the surface layer protein (from the precursor SlpA), C. difficile strain BI-7, ribotype 027; HMW subunit of the surface layer protein (from the precursor SlpA), C. difficile strain BI-7, ribotype 027; Whole cells were the antigen; source: endogenous, on formalin-fixed C. difficile BI-7 cells
Described as above. The settings on record: one partner purified.
B1: the binding result is “binds”.
B2: the binding result is listed as “binds”.
As for B3, the binding result is given as “binds”.
For B4, the binding result was “binds”.

The target of another assay is T5, SLP on cells of C. difficile strain R20291 (ribotype 027) (Clostridioides difficile R20291 …, UniProt A0A9R0BMB3, strain).
T5 construct: LMW subunit of the surface layer protein (from the precursor SlpA), C. difficile strain R20291, ribotype 027; HMW subunit of the surface layer protein (from the precursor SlpA), C. difficile strain R20291, ribotype 027; Whole cells were the antigen; source: endogenous, on formalin-fixed C. difficile R20291 cells
The assay is described as above. The settings on record: one partner purified.
As for B1, the binding result was “binds”.
With B2, the binding result is “binds”.
On the same count and under the same terms, the result for B3 reads “binds”.
Turning to B4, the binding result is on record as “binds”.

For the next assay, the target named is T6, 630 SLP (surface layer protein of C. difficile strain 630, HMW and LMW subunits) (Clostridioides difficile 630 (ribotype …, UniProt Q183M8, strain)).
T6 construct: low-molecular-weight (LMW) subunit of the surface layer protein, cut from the precursor SlpA by Cwp84, C. difficile strain 630 (ribotype 012); predicted mass 34.2 kDa; high-molecular-weight (HMW) subunit of the surface layer protein, cut from the precursor SlpA by Cwp84, C. difficile strain 630 (ribotype 012); predicted mass 39.5 kDa; Both subunits come from one precursor, SlpA; source: purified …
In words: SPR; Biacore 3000; 630 SLP immobilised on a CM5 chip, VHHs injected at various concentrations; data not shown. Conditions: both partners purified.
In the case of B2, the binding result was “no binding”.
For the molecule B3, the binding result is listed as “no binding”.
As for B4, the binding result is given as “no binding”.

Another assay deals with T7, QCD-32g58 SLP (surface layer protein of C. difficile strain QCD-32g58, HMW and LMW subunits) (Clostridioides difficile QCD-32g58 …, UniProt A0A9R0BMB3, strain).
T7 construct: low-molecular-weight (LMW) subunit of the surface layer protein, cut from the precursor SlpA by Cwp84, C. difficile strain QCD-32g58 (ribotype 027); predicted mass 33.9 kDa; high-molecular-weight (HMW) subunit of the surface layer protein, cut from the precursor SlpA by Cwp84, C. difficile strain QCD-32g58 (ribotype 027); predicted mass 44.2 kDa; Both subunits come from one precursor, SlpA; also …
The experiment in a line: SPR; Biacore 3000; fresh QCD-32g58 SLP surface on a CM5 chip, a single injection of each VHH (50 mM NaOH regeneration destroyed the surface); 25 °C, 10 mM HEPES pH 7.4, 150 mM NaCl, 3 mM EDTA, 0.005 % P20; KD from kinetic rate constants. Conditions: both partners purified.
B2 displayed an equilibrium dissociation constant (Kd) of 4 nM, a dissociation rate constant (koff) of 0.00037 s⁻¹ and an on-rate (kon) of 94000 M⁻¹ s⁻¹.
B4 came in with a Kd of 3 nM, a koff of 0.00034 s⁻¹ and a kon of 120000 M⁻¹ s⁻¹.

A further assay concerns the target T6, 630 SLP (surface layer protein of C. …). In words: ELISA; monoclonal phage ELISA: phage-displayed VHHs on immobilized SLPs. The settings on record: one partner purified.
Turning to B5, the binding result is given as “no binding”.
As to B6, the binding result was “no binding”.
With B7, the binding result is listed as “no binding”.

Another assay addresses T7, QCD-32g58 SLP (surface layer protein of …). The experiment in a line: SPR; Biacore 3000; SEC-purified QCD-32g58 SLP amine-coupled to a CM5 chip, VHH monomer fractions injected at various concentrations; 25 °C, 10 mM HEPES pH 7.4, 150 mM NaCl, 3 mM EDTA, 0.005 % P20, 20 μl/min; KD from kinetic rate constants. Conditions: both partners purified.
For B1, the Kd worked out at 6 nM, the koff was determined as 0.00046 s⁻¹ and the kon was found to be 82000 M⁻¹ s⁻¹.
As to B3, binding was put at a Kd of 3 nM, the koff worked out at 0.00034 s⁻¹ and the kon turned out to be 110000 M⁻¹ s⁻¹.

The values are drawn from publication PMC4768215, “Targeting surface-layer proteins with single-domain antibodies: a potential therapeutic approach against Clostridium difficile-associated disease” (Applied Microbiology and Biotechnology, 2015).
